Consider 1 substance from article PMC10373542.

The assay addresses SARS-CoV-2 WA-1 stabilized S trimer, HexaPro (SARS-CoV-2) (UniProt P0DTC2). Briefly: BLI. Background: BLI is a label-free optical method that tracks binding on a fibre tip over time.

CR3022 monoclonal antibody returned a fold increase of binding when S protein is bound to WRAIR-2063 of 6 fold.
